From PMC8287548

Legend:
[1] = target: SpyCatcher-HPF (not stated | Helicobacter pylori); experiment: SPR
[2] = target: SpyCatcher-HPF (not stated | Helicobacter pylori); experiment: covalent conjugation

Q: Which Kd [1] does the source give for “SpyTag-RBD (from UniProt P0DTC2 319-541)” here?
A: Its Kd is 2680 nM.

Q: What about the conjugation efficiency [2] of the same substance?
A: The conjugation efficiency was under 40%.
